Results on 2 molecules are retold here after PMC2860604.

Series [1] concerns the target Wildtype (WT) construct of bZIP domain of human Jun (human). The series can be described thus: SEC-MALS. On the technique in general: Size exclusion chromatography separates by hydrodynamic size, large species first.
For series [2], the target named is T1, Jun bZIP ΔL543 (human, UniProt P05412 251-293).
T1 chain: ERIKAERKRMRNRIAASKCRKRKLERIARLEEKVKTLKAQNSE
Nature of the series: ITC.

Series [3] has as its target Jun bZIP domain WT (human, UniProt P05412 252-315). The series can be described thus: ITC. A general note: ITC needs no label: the signal is the heat of the interaction.
Series [4] has as its target T2, Jun bZIP ΔL5432 (human, UniProt P05412 251-286).
T2 chain: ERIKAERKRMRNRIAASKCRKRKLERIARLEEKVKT
Nature of the series: ITC.

The target of series [5] is T3, Jun bZIP ΔL54321 (human, UniProt P05412 251-279).
T3 chain: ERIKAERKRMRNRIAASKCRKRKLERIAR
The series can be described thus: ITC.

The target in series [6] is Jun bZIP ΔL5 (human, UniProt P05412 251-307). The series can be described thus: ITC.
Series [7] deals with T4, Jun bZIP ΔL54 (human, UniProt P05412 251-300).
T4 chain: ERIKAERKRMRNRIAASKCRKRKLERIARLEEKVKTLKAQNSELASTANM
The series can be described thus: ITC.

Sequence of Jun bZIP domain WT (P05412 252-315): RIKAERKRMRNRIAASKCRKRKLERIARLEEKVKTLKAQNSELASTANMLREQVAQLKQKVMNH

“Wildtype (WT) construct of bZIP domain of human Jun (domain or fragment)”: the stoichiometry N (commonly the number of molecules, sites or subunits per partner or assembly) in series [1] amounted to 2.

B1: TRE duplex (dsDNA)
DNA 1: CGCGTGACTCACCCC
DNA 2: GGGGTGAGTCACGCG
As for B1, the Kd (as a rule, the constant that tells how readily two partners part at equilibrium) came out at 14.8 ± 1.67 µM in series [2], 0.25 ± 0.01 µM in series [3], 1.26 ± 0.21 µM in series [6] and 6.14 ± 0.27 µM in series [7]. Further, the binding result in series [4] and in series [5] was “no binding” each time.
